The values that follow come from patent US20090203610A1, “METHODS OF TREATING OBESITY OR DIABETES USING NT-4/5” (RINAT NEUROSCIENCE CORPORATION, priority 2004, published 2009).

This experiment concerns db/db mice. Put plainly: Dose response of NT-4/5 on serum biomarkers of db/db mice (Example 2). Format: in vivo. As for the experimental part:
Db/db mice maintained as described in Example 1 were divided into five groups (groups 1-5). Group 1 (7 mice) were administered with vehicle (PBS). Group 2 (7 mice), group 3 (8 mice), group 4 (8 mice), group 5 (8 mice) were each administered with NT-4/5 at the doses of 2 mg/kg, 5 mg/kg, 10 mg/kg, and 20 mg/kg, respectively. Both the vehicle and NT-4/5 were administered to each group of the mice subcutaneously once daily for five days. One day before beginning the treatment (T0), blood samples were collected from the mice as described previously for the determination of baseline levels of serum biomarkers (glucose, triglyceride, and cholesterol). Similarly, at day 6 (T6), blood samples were collected for the determination of serum biomarker levels. The blood samples were treated in the same manner as described in Example 1.
Blood glucose, triglyceride, and cholesterol levels were determined as described in Example 1.

Where [1] appears, read: Day 0 (Baseline), 2 mg/kg group.
Setting [2] is: Day 0 (Baseline), 5 mg/kg group.
Where [3] appears, read: Day 0 (Baseline), 10 mg/kg group.
Where [4] appears, read: Day 0 (Baseline), 20 mg/kg group.

B1: NT-4/5: mature human neurotrophin-4/5 (SEQ ID NO:1), obtained from Genentech or produced in E. coli (protein, listed as Homo sapiens)
chain: GVSETAPASRRGELAVCDAVSGWVTDRRTAVDLRGREVEVLGEVPAAGGSPLRQYFFETRCKADNAEEGGPGAGGGGCRGVDRRHWVSECKAKQSYVRALTADAQGRVGWRWIRIDTACVCTLLSRTGRA
Regarding B1, the Cholesterol under setting [1] is reported as 86.25 mg/dL; the Cholesterol under setting [2] was found to be 95.88 mg/dL; the Cholesterol under setting [3] amounted to 90.00 mg/dL; the Cholesterol under setting [4] was found to be 98.38 mg/dL; the Cholesterol (Day 6, 2 mg/kg s.c. once daily for five days) is 111.43 mg/dL; the Cholesterol (Day 6, 5 mg/kg s.c. once daily for five days) is listed as 113.25 mg/dL. Moreover, the Cholesterol reads like this: (Day 6, 10 mg/kg s.c. once daily for five days) 108.75 mg/dL; (Day 6, 20 mg/kg s.c. once daily for five days) 112.88 mg/dL. Besides, the Glucose runs as follows: under setting [1], 544.50 mg/dL; under setting [2], 563.00 mg/dL; under setting [3], 538.00 mg/dL; under setting [4], 544.88 mg/dL. For the same molecule, the Triglyceride stood at 206.13 mg/dL under setting [1], 217.13 mg/dL under setting [2], 197.50 mg/dL under setting [3] and 253.50 mg/dL under setting [4]. The “blood cholesterol levels” value (day 6, 2-20 mg/kg) is listed as “remained at the baseline level”.
